From paper doi:10.1101/303123 (bioRxiv, 2018) come the findings set out here.

Experiment [1] addresses T1, XcpX (29-313), soluble form of the minor pseudopilin XcpX (P. aeruginosa, UniProt Q00518 29-313).
T1 sequence (looked up): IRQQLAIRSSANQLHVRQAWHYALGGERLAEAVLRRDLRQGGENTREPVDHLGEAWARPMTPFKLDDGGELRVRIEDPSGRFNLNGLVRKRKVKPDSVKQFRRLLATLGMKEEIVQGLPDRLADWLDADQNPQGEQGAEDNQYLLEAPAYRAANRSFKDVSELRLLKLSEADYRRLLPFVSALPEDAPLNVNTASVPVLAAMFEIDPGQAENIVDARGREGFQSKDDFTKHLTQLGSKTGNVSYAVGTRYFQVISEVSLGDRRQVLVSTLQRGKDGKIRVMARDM
In words: crystal structure.

The target of experiment [2] is T2, XcpVW binary complex (XcpV (28-129) with XcpW (28-203)) (P. aeruginosa, UniProt Q00516 28-129; Q00517 28-203).
T2 sequence (looked up) 1: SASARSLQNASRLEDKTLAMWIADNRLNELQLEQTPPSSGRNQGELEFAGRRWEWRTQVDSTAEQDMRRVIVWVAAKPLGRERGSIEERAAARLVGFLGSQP
T2 sequence (looked up) 2: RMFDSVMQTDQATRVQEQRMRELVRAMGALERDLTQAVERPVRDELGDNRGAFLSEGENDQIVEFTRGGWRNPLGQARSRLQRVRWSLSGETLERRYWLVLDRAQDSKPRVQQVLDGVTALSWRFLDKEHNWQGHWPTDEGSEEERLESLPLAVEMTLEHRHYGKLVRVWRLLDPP
In words: SEC + AUC.

B1: XcpV (28-129), soluble form of the minor pseudopilin XcpV (domain or fragment, P. aeruginosa, UniProt Q00516 28-129, looked up)
chain: SASARSLQNASRLEDKTLAMWIADNRLNELQLEQTPPSSGRNQGELEFAGRRWEWRTQVDSTAEQDMRRVIVWVAAKPLGRERGSIEERAAARLVGFLGSQP
As to B1, in experiment [1], the binding result is reported as “binds”.

B2: XcpU (29-172), soluble form of the minor pseudopilin XcpU (domain or fragment, P. aeruginosa, UniProt Q00515 29-172, looked up)
chain: STGFASTSRELDSEAERLAGLIGVLTDEAVLDNREYGLRLERDAYQVLRYDEAKARWLPVARDSHRLPEWAELTFELDGQPLVLAGSKGEKEQKKGTDQPQLLILSSGELSPFRLRLAERGPEGRALSLSSDGFRLPRVEVARR
In the case of B2, in experiment [2], the binding result was “binds”.
